The source of these data is article PMC5673899, “Structural basis for receptor recognition of pollen tube attraction peptides” (Nature Communications, 2017).

The target of assay [1] is T1, AtPRK6^LRR, extracellular LRR domain of AtPRK6 (residues 1-262) (Arabidopsis thaliana, UniProt Q3E991 27-262).
T1 chain: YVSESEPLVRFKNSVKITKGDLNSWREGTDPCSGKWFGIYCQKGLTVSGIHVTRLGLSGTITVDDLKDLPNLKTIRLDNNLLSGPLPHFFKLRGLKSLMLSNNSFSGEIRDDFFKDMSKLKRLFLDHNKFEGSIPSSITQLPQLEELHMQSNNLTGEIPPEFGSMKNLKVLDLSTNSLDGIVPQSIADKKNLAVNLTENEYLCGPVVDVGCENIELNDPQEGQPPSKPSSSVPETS
The assay can be described thus: ITC.

The target in assay [2] is T2, AtPRK6^LRR N239A (residues 1-262) (Arabidopsis thaliana, UniProt Q3E991 27-262, N239A).
T2 construct: signal peptide in the construct; PRK6 of Arabidopsis thaliana, extracellular LRR domain, residues 1-262, with N239A; also called N239A mutant of PRK6; source: High Five insect cells (baculovirus), secreted, purified as AtPRK6^LRR; not shown: His6, C-terminal, kept
T2 sequence (looked up): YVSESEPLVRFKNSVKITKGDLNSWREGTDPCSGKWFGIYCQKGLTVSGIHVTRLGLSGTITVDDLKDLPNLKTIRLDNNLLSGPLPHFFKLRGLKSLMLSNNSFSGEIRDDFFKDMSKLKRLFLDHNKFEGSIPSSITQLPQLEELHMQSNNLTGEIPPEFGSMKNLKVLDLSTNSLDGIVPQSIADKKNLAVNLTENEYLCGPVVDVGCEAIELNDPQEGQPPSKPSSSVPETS
Briefly: pull-down; His-tagged LRR protein mixed with excess AtLURE1.2 peptide and held on Ni-NTA resin, on ice 30 min; washed five times with 25 mM Tris pH 8.0, 150 mM NaCl, 15 mM imidazole; eluted with 250 mM imidazole; SDS-PAGE, Coomassie. The conditions noted are these: both partners purified.

Assay [3] addresses T3, AtPRK6^LRR, extracellular LRR domain of AtPRK6 (residues 1-262) (Arabidopsis thaliana, UniProt Q3E991 27-262).
T3 construct: signal peptide in the construct; leucine-rich repeat receptor kinase PRK6 of Arabidopsis thaliana, extracellular LRR domain, residues 1-262; Monomer by gel filtration; likely glycosylated (apparent 34 kDa); source: High Five insect cells (baculovirus), secreted, purified (Ni-NTA, size-exclusion chromatography); also co-expressed with AtLURE1 peptides; not shown: His6, C-terminal, kept
T3 sequence (looked up): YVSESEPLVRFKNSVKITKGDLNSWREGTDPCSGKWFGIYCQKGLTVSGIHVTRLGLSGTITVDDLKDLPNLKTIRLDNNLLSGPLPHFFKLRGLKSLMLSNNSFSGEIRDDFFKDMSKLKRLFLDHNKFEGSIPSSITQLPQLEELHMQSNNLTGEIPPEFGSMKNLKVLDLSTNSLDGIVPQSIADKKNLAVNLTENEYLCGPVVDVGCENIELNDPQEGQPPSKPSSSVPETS
Briefly: ITC; ITC200, 25 °C, 200 mM HEPES pH 7.0, 100 mM NaCl; about 0.9 mM AtLURE1.2 injected (20 x 2 μl) into 0.08 mM LRR protein in the cell. The conditions noted are these: both partners purified.

Assay [4] deals with AtPRK6^LRR. The assay can be described thus: In vitro pull-down with AtPRK6^LRR. It counts as binding, Arabidopsis thaliana. An excerpt:
The genes of AtPRK3 ^LRR (residues 1–241), AtPRK4 ^LRR (residues 1–277), AtPRK5 ^LRR (residues 1–279), AtPRK6 ^LRR (residues 1–262), MIK1 ^LRR (residues 1–633), MIK2 ^LRR (residues 1–707) were amplified from Arabidopsis cDNA library by PCR and cloned into pFastBac-1 vector with a C-terminal 6 × His-tag. Their identities were confirmed by sequencing. The mature form of AtLURE1.1 (residues 20–94), AtLURE1.2 (residues 20–90), AtLURE1.3 (residues 21–91), and AtLURE1.4 (residues 20–90) were cloned into pFastBac-1 vector, with a modified N-terminal hemolin signal peptide and 6 × His-SUMO tag. Point mutation constructs were generated by QuickChange Site-Directed Mutagenesis Kit (Strategene). All the proteins were expressed using the Bac-to-Bac baculovirus expression system (Invitrogen) in High Five cells at 22 °C. One liter of High Five cells (2.0 × 10^6 cells mL^−1) cultured in the medium from Expression Systems was infected with 25 ml recombinant baculovirus and the media was collected after 72 h of infection. Secreted LRR proteins were purified using Ni-NTA (Novagen) and size-exclusion chromatography (Hiload 200, GE Healthcare) in buffer containing 10 mM Bis-Tris pH 6.0 and 100 mM NaCl. The His-SUMO tag of the AtLURE proteins was removed by Prescission Protease at 4 °C overnight in buffer containing 25 mM Tris pH 8.0 and 150 mM NaCl. All AtLURE proteins were further cleaned by size-exclusion chromatography (Hiload 200, GE Healthcare). For co-expression of AtPRK6^LRR and AtLURE1, one liter of High Five cells were co-infected with 20 and 30 ml recombinant baculovirus of AtPRK6^LRR and AtLURE1, respectively. Secreted AtPRK6^LRR-AtLURE1 complexes were processed with Prescission Protease digestion and then purified as described above. Expression and purification procedures of all the mutants were essentially the same as those of AtPRK6^LRR and AtLURE1.2.
The purified His-tagged ectodomains of AtPRK proteins and MIK1, 2 were used to pull-down the AtLURE1.2 peptide. […] All the eluted samples were analyzed by SDS-PAGE and visualized by Coomassie blue staining. […]

The subject of assay [5] is semi-in-vivo pollen tubes (wild type). Briefly: AtLURE-responsive wavy assay, wild-type pollen tubes. It counts as cell-based, Arabidopsis. The conditions noted are these: 250 nM peptide in solid pollen germination medium. The protocol: Attraction activities of mutant AtLURE1.2 peptides were examined for semi-in-vivo pollen tubes growing through cut, pollinated pistils by gelatin-beads assay and wavy assay, [20]. For the gelatin-beads assay, pollen tubes were grown on solid pollen germination medium poured into a mold made with 1-mm thick silicone rubber and cover glasses. After hand-pollination, the topside cover glass was removed and the medium was covered with hydrated silicone oil (KF-96–100CS; Shin-Etsu). Attraction of pollen tubes toward the peptide was evaluated using AtLURE1 peptide containing gelatine beads under an inverted microscope (IX71, Olympus) equipped with a micro-manipulator (Narishige). For the AtLURE1-responsive wavy assay, the purified AtLURE1.2 peptide was added to solid pollen germination medium, which was melted at 70 °C and then cooled to a certain degree. The mixture was mixed by vortexing and poured into the mold. Pollen tubes of each genotype were grown through cut styles, as mentioned above. Each peptide (25 μM in 10 mM Bis-Tris (pH 6.0) and 100 mM NaCl) was diluted to 250 nM by cultivation medium in both assays. […]
pollen tubes. Fluorescence is from mRuby2 fused to the C-terminal of PRK6 receptors, showing that all of mutant PRK6 receptors localize normally to the plasma membrane of the pollen tube tip. […]

Assay [6] relates to semi-in-vivo pollen tubes. Briefly: Gelatin-beads assay, wild-type semi-in-vivo pollen tubes. The class given is cell-based, Arabidopsis. The settings on record: for pollen tube attraction activity (in words): Tukey−Kramer test, P < 0.05. The protocol:
Attraction activities of mutant AtLURE1.2 peptides were examined for semi-in-vivo pollen tubes growing through cut, pollinated pistils by gelatin-beads assay and wavy assay, [20]. For the gelatin-beads assay, pollen tubes were grown on solid pollen germination medium poured into a mold made with 1-mm thick silicone rubber and cover glasses. After hand-pollination, the topside cover glass was removed and the medium was covered with hydrated silicone oil (KF-96–100CS; Shin-Etsu). Attraction of pollen tubes toward the peptide was evaluated using AtLURE1 peptide containing gelatine beads under an inverted microscope (IX71, Olympus) equipped with a micro-manipulator (Narishige). For the AtLURE1-responsive wavy assay, the purified AtLURE1.2 peptide was added to solid pollen germination medium, which was melted at 70 °C and then cooled to a certain degree. The mixture was mixed by vortexing and poured into the mold. Pollen tubes of each genotype were grown through cut styles, as mentioned above. Each peptide (25 μM in 10 mM Bis-Tris (pH 6.0) and 100 mM NaCl) was diluted to 250 nM by cultivation medium in both assays. To examine reactivity of PRK6 mutants to AtLURE1.2, constructs for PRK6 mutants, D234A, N239A, and ΔN239I240, were generated by site-directed mutagenesis from a wild-type PRK6 vector, pPZP221-pPRK6::PRK6-mRuby2 (ref. [20]). Wild-type and mutant PRK6 constructs were introduced into prk6–1 plant. After transformants were selected by the same criteria as previously, beads assay and wavy assay were performed in several T1 lines and single T2 line, respectively, for each genotype using 250 nM wild-type AtLURE1.2 peptide.

The target in assay [7] is T3, AtPRK6^LRR, extracellular LRR domain of …. Briefly: pull-down; His-tagged LRR protein mixed with excess AtLURE1.2 peptide and held on Ni-NTA resin, on ice 30 min; washed five times with 25 mM Tris pH 8.0, 150 mM NaCl, 15 mM imidazole; eluted with 250 mM imidazole; SDS-PAGE, Coomassie. The settings on record: both partners purified.
[8] abbreviates: gelatin beads containing 250 nM peptide.

Entries after “also recorded” stand apart in the source; their conditions may differ.

B1: AtLURE1.2, mature form (residues 20-90) (peptide, UniProt Q4VP08 20-90, looked up)
chain: TLINGSSDEERTYSFSPTTSPFDPRSLNQELKIGRIGYCFDCARACMRRGKYIRTCSFERKLCRCSISDIK
notes: AtLURE1.2, defensin-like cysteine-rich peptide of Arabidopsis thaliana, mature form, residues 20-90; Cloned in pFastBac-1 behind a modified N-terminal hemolin signal peptide and a 6xHis-SUMO tag; Likely glycosylated (apparent 14 kDa); also called AtLURE1.2 peptide; source: also co-expressed with AtPRK6^LRR for the crystallised complex; not shown: His6, N-terminal, cleaved; SUMO, N-terminal, …
In assay [1], B1 registered a Ka of 321000 M⁻¹. In assay [2], the binding result is “binds”. Moreover, in assay [3], the Kd was approximately 3.1 µM.

B2: R83A: R83A AtLURE1.2 peptide, Arg83 substituted with alanine (protein)
chain: TLINGSSDEERTYSFSPTTSPFDPRSLNQELKIGRIGYCFDCARACMRRGKYIRTCSFERKLCACSISDIK
modifications: left off: His6, N-terminal, cleaved | SUMO, N-terminal, cleaved
notes: R83A AtLURE1.2 peptide, Arg83 substituted with alanine
On to B2, for which, in assay [4] (Ni-NTA, excess AtLURE1.2, on ice 30 min, washed five times, 25 mM Tris pH 8.0, 150 mM NaCl, SDS-PAGE, Coomassie blue, repeated at least three times), the “interaction in pull-down assay” value is “compromised but not abolished; also recorded: compromised”. The “interaction in pull-down assay, less harsh washing” value in assay [4] (once or twice washing, peer review file) was “much less than the wild type AtLURE1.2”. The “wavy pollen tube response” value in assay [5] is reported as “decreased; also recorded: greatly reduced the numbers of wavy pollen tubes”. For the same molecule, the “pollen tube attraction activity (in words)” value in assay [6] (setting [8]) is given as “significantly lower than those in other four peptides”. Further, the “attraction frequency of pollen tubes” value in assay [6] (gelatin beads containing 250 nM peptide, mean ± SD, 9–16 pollen tubes per assay, 3−5 assays) is 56 ± 11%. For the same molecule, in assay [6] (gelatin beads, 250 nM peptide), the “pollen tubes not attracted to the bead” value is on record as “more than 44%”.

B3: R68A: R68A mutant AtLURE1.2 peptide (protein, UniProt Q4VP08 20-90, looked up, variant R68A)
Protein LURE 1.2: TLINGSSDEERTYSFSPTTSPFDPRSLNQELKIGRIGYCFDCARACMRAGKYIRTCSFERKLCRCSISDIK
With B3, the “pollen tube attraction activity (in words)” value in assay [6] (setting [8]) is on record as “little effect”.

B4: R73A: R73A mutant AtLURE1.2 peptide (protein, UniProt Q4VP08 20-90, looked up, variant R73A)
Protein LURE 1.2: TLINGSSDEERTYSFSPTTSPFDPRSLNQELKIGRIGYCFDCARACMRRGKYIATCSFERKLCRCSISDIK
Take B4: the “pollen tube attraction activity (in words)” value in assay [6] (setting [8]) was “little effect”.

B5: R79A: R79A mutant AtLURE1.2 peptide (protein, UniProt Q4VP08 20-90, looked up, variant R79A)
Protein LURE 1.2: TLINGSSDEERTYSFSPTTSPFDPRSLNQELKIGRIGYCFDCARACMRRGKYIRTCSFEAKLCRCSISDIK
As for B5, in assay [6] (setting [8]), the “pollen tube attraction activity (in words)” value is recorded as “little effect”.

B6: AtLURE1.2 R83A (residues 20-90) (peptide, UniProt Q4VP08 20-90, looked up)
chain: TLINGSSDEERTYSFSPTTSPFDPRSLNQELKIGRIGYCFDCARACMRRGKYIRTCSFERKLCACSISDIK
notes: AtLURE1.2 of Arabidopsis thaliana, mature form, residues 20-90, with R83A; also called R83A AtLURE1.2; mutant peptide R83A; source: High Five insect cells (baculovirus), secreted, purified as AtLURE1.2; not shown: His6, N-terminal, cleaved; SUMO, N-terminal, cleaved
As for B6, the binding result in assay [7] is “binds”.
